Data: the supplement of paper PMC10899765

Legend:
Settings in all cases: 20 nM; 72 h
MCF10A [1] = assay: one-nucleolus phenotype percent effect (relative to siNT 0% and siNOL11 100%); higher = more cells with one nucleolus (ribosome biogenesis inhibition)
Description: (§1)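 After 72 h, cells were fixed and stained with Hoechst and anti-fibrillarin, and nucleoli per nucleus were counted with CellProfiler. Values are plate-adjusted percent effect for the one-nucleolus and 5+ nucleoli phenotypes, normalised to siNT (0%) and to the positive controls siNOL11 or siKIF11 (100%), as the mean of biological triplicates. Percent viability is the nuclei count relative to siNT.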

MCF10A [2] = assay: 5+ nucleoli phenotype percent effect (relative to siNT 0% and siKIF11 100%); higher = more cells with five or more nucleoli
Description: as §1

MCF10A [3] = assay: percent viability (nuclei count relative to siNT); higher = more viable cells
Description: as §1

Sequence	one-nucleolus phenotype percent effect (MCF10A [1]) [%]	5+ nucleoli phenotype percent effect (MCF10A [2]) [%]	percent viability (MCF10A [3]) [%]
UGUCUCUGCUGGGGUUUCU [hsa-miR-593-3p]	55.4	-39.2	18.1
UGCUGGCUCAUUUCAUAUGUGU [hsa-miR-5580-5p]	22.1	-18.4	29.6
UUGGGGUUUGGGGUGCAGACAUUGC [hsa-miR-6855-5p]	34.4	-2.12	9.03
UGCUGAUGGCAGAUGUCGGGUCUG [hsa-miR-8075]	44.2	-34.6	20.8
AGAGGCUGAGAAGGUGAUGUUG [hsa-miR-6884-5p]	41.6	-24.7	22.3
UUGAAUUCUUGGCCUUAAGUGAU [hsa-miR-4452]	-19.4	-9.56	42.1
CCUGAUCCCACAGCCCACCU [hsa-miR-3151-3p]	-1.47	2.64	66.1
AAAGACAUAGGAUAGAGUCACCUC [hsa-miR-641]	-15.4	1.49	213
ACUCCAAGAAGAAUCUAGACAG [hsa-miR-5695]	-26.7	39.3	183
UCCGUACAAACUCUGCUGUG [hsa-miR-3678-5p]	39.4	-49.2	64.4
AUCGUGCAUCCCUUUAGAGUGU [hsa-miR-517a-3p]	3.74	-11.8	46.8
UGCGGCCGGUGCUCAACCUGC [hsa-miR-1199-3p]	23.8	-6.68	22.1
ACAACAGUGACUUGCUCUCCAA [hsa-miR-4709-5p]	3.79	-18.3	73.8
GGGGGGGGGGGGGGGGGGCCG [hsa-miR-1234-5p]	-31.5	65.1	78.1
UUCAACGGGUAUUUAUUGAGCA [hsa-miR-95]	-0.724	9.5	69.8
UAAGGCACCCUUCUGAGUAGA [hsa-miR-506-3p]	57.2	-31.8	15.7
AGUGGCACAUGUUUGUUGUGAG [hsa-miR-891a-3p]	35	-11.2	32.1
UCGGGCCUGGGGUUGGGGGAGC [hsa-miR-6749-5p]	-10.1	21.9	37.7
UGGAGAGAAAGGCAGUA [hsa-miR-4306]	-8.22	31.6	13.5
UUUCCCUUUCCAUCCUGGCAG [hsa-miR-5006-3p]	4.84	18.5	31.7
UGCCCUGCAUGGUGUCCCCACAG [hsa-miR-6799-3p]	6.43	-1.27	41.1
CGGGUGGAUCACGAUGCAAUUU [hsa-miR-363-5p]	-21.2	161	4.57
UCAGCACCAGGAUAUUGUUGGAG [hsa-miR-3065-3p]	-25.2	62.3	67.2
GUGGGCUGGGCUGGGCUGGGCC [hsa-miR-3620-5p]	27.5	-31.1	31.3

Sequence	one-nucleolus phenotype percent effect (MCF10A [1]) [%]	5+ nucleoli phenotype percent effect (MCF10A [2]) [%]	percent viability (MCF10A [3]) [%]
UAGCGGGGAUUCCAAUAUUGG [hsa-miR-4781-5p]	46.5	-29.7	24.3
GAAAGCGCUUCUCUUUAGAGG [hsa-miR-518f-3p]	17.1	-8.13	63.6
ACUGGCAUGCUGCAUUUAUAUA [hsa-miR-4799-3p]	-19.8	50.9	66.3
AAAGACUCUGCAAGAUGCCU [hsa-miR-4432]	-5.81	-6.99	67.3
CAUCCCUUGCAUGGUGGAGGG [hsa-miR-188-5p]	-13.1	45.6	98.4
AAGAGAGGAGCAGUGGUGCUGUGG [hsa-miR-6856-5p]	0.793	-5.13	52.1
UCUCUCGGCUCCUCGCGGCUC [hsa-miR-3615]	-7.12	27.8	69.8
UAAUGCAUUAAAUUAUUGAAGG [hsa-miR-5700]	-23.8	47.4	125
CACUGCAGGACUCAGCAG [hsa-miR-4418]	-4.26	-22.7	55.1
AAGUGCUGUCAUAGCUGAGGUC [hsa-miR-512-3p]	-17.8	45.1	69.7
AGAAGUAAUUGCGGUUUUGCCA [hsa-miR-548ax]	4.38	-15.7	53.4
UUGCCAUGUCUAAGAAGAA [hsa-miR-4659b-5p]	29.7	-38.1	42
UCUUGUGUUCUCUAGAUCAGU [hsa-miR-581]	-3.72	2.53	82.2
UAUGGUACUCCUUAAGCUAAC [hsa-miR-5579-5p]	-26.5	101	86.3
AAAGUGCUUCCCUUUGGACUGU [hsa-miR-520a-3p]	-9.18	40.6	60.8
AAAAUGAAAUGAGCCCAGCCCA [hsa-miR-3646]	-19.1	21.9	63.5
UCUAAAGACUAGACUUCGCUAUG [hsa-miR-4744]	-22	32	106
UGUCUUGCAGGCCGUCAUGCA [hsa-miR-431-5p]	53.9	-40.8	28.5
AGUGGGAGGACAGGAGGCAGGU [hsa-miR-6778-5p]	-2.52	-9.05	26.7
UGCCCAUGCCAUACUUUUGCCUCA [hsa-miR-4641]	5.53	7.52	78.6
UUGUGCUUGAUCUAACCAUGU [hsa-miR-218-5p]	-8.63	35.8	151
CUGCAGACUCGACCUCCCAGGC [hsa-miR-1273h-3p]	13.6	-28.5	41.7
UCAAUAGGAAAGAGGUGGGACCU [hsa-miR-6826-5p]	26.5	-20.8	33.3
UAUCGUAUCGUAUUGUAUUGU [hsa-miR-5686]	-22.7	39.8	93.8
